Columns and labels:
[1] = molecular target: BG505 NFL.664 (native flexibly linked, cleavage-independent soluble HIV Env trimer) (HIV-1 isolate BG505 (clade A)); assay: crystal structure
[2] = molecular target: BG505 NFL.664 (native flexibly linked, cleavage-independent soluble HIV Env trimer) (HIV-1 isolate BG505 (clade A)); assay: cryo-EM structure
DSC = settings: glycan changed form; control: BG505 NFL.664 from HEK 293F, natural glycoforms
BG505 SOSIP.664 = assay: BLI

Row | Kd (BG505 SOSIP.664) [nM] | koff (BG505 SOSIP.664) [s⁻¹] | Substance | stoichiometry N [1] | stoichiometry N [2] | stability_or_folding, Tm (DSC)
1 | – | – | BG505 NFL.664 (native flexibly linked, cleavage-independent soluble HIV Env trimer) | 3 | 3 | –
2 | – | – | BG505 NFL.664 Env trimer: kifunensine and swainsonine (oligomannose only) | – | – | no change, 66.6 vs 65.8
3 | 58.5 | 0.00033 | PGT121 Fab | – | – | –
4 | 38.3 | 0.00059 | PGT124 Fab | – | – | –
